{
  "source": "patent US20120064125A1",
  "about": "(priority 2009, published 2012)",
  "molecules": {"B1": {"name": "proteinase K: Proteinase K (Research Productions International), protease added to flow cell media (protein, UniProt P06873 106-384, looked up)", "Proteinase K": "AAQTNAPWGLARISSTSPGTSTYYYDESAGQGSCVYVIDTGIEASHPEFEGRAQMVKTYYYSSRDGNGHGTHCAGTVGSRTYGVAKKTQLFGVKVLDDNGSGQYSTIIAGMDFVASDKNNRNCPKGVVASLSLGGGYSSSVNSAAARLQSSGVMVAVAAGNNNADARNYSPASEPSVCTVGASDRYDRRSSFSNYGSVLDIFGPGTSILSTWIGGSTRSISGTSMATPHVAGLAAYLMTLGKTTAASACRYIADTANKGDLSNIPFGTVNLLAYNNYQA"}},
  "test_system": "USA300 strain LAC biofilm",
  "experiment": "Protease and DNaseI treatment of USA300 titanium biofilms (CLSM, COMSTAT)",
  "format": "cell-based, Staphylococcus aureus",
  "settings": "2 day biofilm, Proteinase K 2 μg/mL or DNaseI 0.5 Units/mL",
  "experimental": "FIGS. 4A-B. Protease and DNaseI treatment of USA300 titanium biofilms. Biofilms of LAC with plasmid pCM12 were grown for two days on titanium. Biofilms were either untreated or grown in the presence of Proteinase K or DNaseI. For treatments, Proteinase K was added to 2 μg/mL and DNaseI was added to 0.5 Units/mL to the flow cell media. At 6 and 22 hr, CLSM images were obtained and analyzed. (FIG. 4A) Representative CLSM image reconstructions generated from a z series. Each side of the image grid square is 20 μm. (FIG. 4B) COMSTAT analysis of images represented in terms of average thickness (μm) and biomass (μm^3/μm^2). Green triangles represent untreated biofilm, red circles represent DNaseI treatment, and black squares represent Proteinase K treatment. Error bars represent standard deviation.\nBiofilm Assays. For biofilms grown on glass, flow cell biofilm growth, confocal scanning laser microscopy (CSLM), and computer image analysis were performed as previously described (Boles and Horswill, 2008). […] For biofilm dispersal tests, AIP type I (AIP-I) was synthesized and quantified using an intein system (Malone et al., 2007), and biofilm dispersal tests were performed as previously described (Boles and Horswill, 2008). […] LAC biofilm integrity was monitored at 6 hr and 22 hr, and COMSTAT analysis was performed to quantify the biofilm properties. […]",
  "data": [
    {"molecule": "B1", "values": [
      {"measurement": "LAC biomass detached from the titanium surface", "setting": "6 hr", "value": "approximately 93%"},
      {"measurement": "LAC biomass detached from the titanium surface", "setting": "22 hr", "value": "all of the LAC biomass had detached"}
    ]}
  ]
}
